Results: patent US20130115645

Biological target: human prothrombin (Enzyme Research Laboratories), P00734

B1: Fibrinogen-like protein 2 (FGL-2)/fibroleukin, human (protein)
chain: NNETEEIKDERAKDVCPVRLESRGKCEEAGECPYQVSLPPLTIQLPKQFSRIEEVFKEVQNLKEIVNSLKKSCQDCKLQADDNGDPGRNGLLLPSTGAPGEVGDNRVRELESEVNKLSSELKNAKEEINVLHGRLEKLNLVNMNNIENYVDSKVANLTFVVNSLDGKCSKCPSQEQIQSRPVQHLIYKDCSDYYAIGKRSSETYRVTPDPKNSSFEVYCDMETMGGGWTVLQARLDGSTNFTRTWQDYKAGFGNLRREFWLGNDKIHLLTKSKEMILRIDLEDFNGVELYALYDQFYVANEFLKYRLHVGNYNGTAGDALRFNKHYNHDLKFFTTPDKDNDRYPSGNCGLYYSSGWWFDACLSANLNGKYYHQKYRGVRNGIFWGTWPGVSEAHPGGYKSSFKEAKMMIRPKHFKP
Q: For B1, which “FGL-2 prothrombinase activity (thrombin generation assay, chromogenic substrate, 405 nm)” value is on record?
A: FGL-2 prothrombinase activity in HUVEC was only observed following maximal stimulation with TNFα
